Laboratory results: paper PMC2886353 (The Journal of Cell Biology, 2010)

Target: the molecule itself
Assay: single-molecule step-wise photobleaching

Protein	stoichiometry N
KIF17 (1-738)-3xmCit (domain or fragment, human, UniProt Q9P2E2-1 1-738, looked up) MASEAVKVVVRCRPMNQRERELRCQPVVTVDCARAQCCIQNPGAADEPPKQFTFDGAYHVDHVTEQIYNEIAYPLVEGVTEGYNGTIFAYGQTGSGKSFTMQGLPDPPSQRGIIPRAFEHVFESVQCAENTKFLVRASYLEIYNEDVRDLLGADTKQKLELKEHPEKGVYVKGLSMHTVHSVAQCEHIMETGWKNRSVGYTLMNKDSSRSHSIFTISIEMSAVDERGKDHLRAGKLNLVDLAGSERQSKTGATGERLKEATKINLSLSALGNVISALVDGRCKHVPYRDSKLTRLLQDSLGGNTKTLMVACLSPADNNYDETLSTLRYANRAKNIRNKPRINEDPKDALLREYQEEIKKLKAILTQQMSPSSLSALLSRQVPPDPVQVEEKLLPQPVIQHDVEAEKQLIREEYEERLARLKADYKAEQESRARLEEDITAMRNSYDVRLSTLEENLRKETEAVLQVGVLYKAEVMSRAEFASSAEYPPAFQYETVVKPKVFSTTDTLPSDDVSKTQVSSRFAELPKVEPSKSEISLGSSESSSLEETSVSEAFPGPEEPSNVEVSMPTEESRSRYFLDECLGQEAAGHLLGEQNYLPQEEPQEVPLQGLLGLQDPFAEVEAKLARLSSTVARTDAPQADVPKVPVQVPAPTDLLEPSDARPEAEAADDFPPRPEVDLASEVALEVVRTAEPGVWLEAQAPVALVAQPEPLPATAGVKRESVGMEVAVLTDDPLPVVDQ	2
KIF17 (1-846)-3xmCit (domain or fragment, human, UniProt Q9P2E2-1 1-846, looked up) MASEAVKVVVRCRPMNQRERELRCQPVVTVDCARAQCCIQNPGAADEPPKQFTFDGAYHVDHVTEQIYNEIAYPLVEGVTEGYNGTIFAYGQTGSGKSFTMQGLPDPPSQRGIIPRAFEHVFESVQCAENTKFLVRASYLEIYNEDVRDLLGADTKQKLELKEHPEKGVYVKGLSMHTVHSVAQCEHIMETGWKNRSVGYTLMNKDSSRSHSIFTISIEMSAVDERGKDHLRAGKLNLVDLAGSERQSKTGATGERLKEATKINLSLSALGNVISALVDGRCKHVPYRDSKLTRLLQDSLGGNTKTLMVACLSPADNNYDETLSTLRYANRAKNIRNKPRINEDPKDALLREYQEEIKKLKAILTQQMSPSSLSALLSRQVPPDPVQVEEKLLPQPVIQHDVEAEKQLIREEYEERLARLKADYKAEQESRARLEEDITAMRNSYDVRLSTLEENLRKETEAVLQVGVLYKAEVMSRAEFASSAEYPPAFQYETVVKPKVFSTTDTLPSDDVSKTQVSSRFAELPKVEPSKSEISLGSSESSSLEETSVSEAFPGPEEPSNVEVSMPTEESRSRYFLDECLGQEAAGHLLGEQNYLPQEEPQEVPLQGLLGLQDPFAEVEAKLARLSSTVARTDAPQADVPKVPVQVPAPTDLLEPSDARPEAEAADDFPPRPEVDLASEVALEVVRTAEPGVWLEAQAPVALVAQPEPLPATAGVKRESVGMEVAVLTDDPLPVVDQQQVLARLQLLEQQVVGGEQAKNKDLKEKHKRRKRYADERRKQLVAALQNSDEDSGDWVLLNVYDSIQEEVRAKSKLLEKMQRKLRAAEVEIKDLQSEFQLEKIDYLAT	2
KIF17 (1-369)-3xmCit (domain or fragment, human, UniProt Q9P2E2-1 1-369, looked up) MASEAVKVVVRCRPMNQRERELRCQPVVTVDCARAQCCIQNPGAADEPPKQFTFDGAYHVDHVTEQIYNEIAYPLVEGVTEGYNGTIFAYGQTGSGKSFTMQGLPDPPSQRGIIPRAFEHVFESVQCAENTKFLVRASYLEIYNEDVRDLLGADTKQKLELKEHPEKGVYVKGLSMHTVHSVAQCEHIMETGWKNRSVGYTLMNKDSSRSHSIFTISIEMSAVDERGKDHLRAGKLNLVDLAGSERQSKTGATGERLKEATKINLSLSALGNVISALVDGRCKHVPYRDSKLTRLLQDSLGGNTKTLMVACLSPADNNYDETLSTLRYANRAKNIRNKPRINEDPKDALLREYQEEIKKLKAILTQQMS	2
KIF17 (1-795)-3xmCit (domain or fragment, human, UniProt Q9P2E2-1 1-795, looked up) MASEAVKVVVRCRPMNQRERELRCQPVVTVDCARAQCCIQNPGAADEPPKQFTFDGAYHVDHVTEQIYNEIAYPLVEGVTEGYNGTIFAYGQTGSGKSFTMQGLPDPPSQRGIIPRAFEHVFESVQCAENTKFLVRASYLEIYNEDVRDLLGADTKQKLELKEHPEKGVYVKGLSMHTVHSVAQCEHIMETGWKNRSVGYTLMNKDSSRSHSIFTISIEMSAVDERGKDHLRAGKLNLVDLAGSERQSKTGATGERLKEATKINLSLSALGNVISALVDGRCKHVPYRDSKLTRLLQDSLGGNTKTLMVACLSPADNNYDETLSTLRYANRAKNIRNKPRINEDPKDALLREYQEEIKKLKAILTQQMSPSSLSALLSRQVPPDPVQVEEKLLPQPVIQHDVEAEKQLIREEYEERLARLKADYKAEQESRARLEEDITAMRNSYDVRLSTLEENLRKETEAVLQVGVLYKAEVMSRAEFASSAEYPPAFQYETVVKPKVFSTTDTLPSDDVSKTQVSSRFAELPKVEPSKSEISLGSSESSSLEETSVSEAFPGPEEPSNVEVSMPTEESRSRYFLDECLGQEAAGHLLGEQNYLPQEEPQEVPLQGLLGLQDPFAEVEAKLARLSSTVARTDAPQADVPKVPVQVPAPTDLLEPSDARPEAEAADDFPPRPEVDLASEVALEVVRTAEPGVWLEAQAPVALVAQPEPLPATAGVKRESVGMEVAVLTDDPLPVVDQQQVLARLQLLEQQVVGGEQAKNKDLKEKHKRRKRYADERRKQLVAALQNSDEDSGDW	2
KIF17 (1-490)-3xmCit (domain or fragment, human, UniProt Q9P2E2-1 1-490, looked up) MASEAVKVVVRCRPMNQRERELRCQPVVTVDCARAQCCIQNPGAADEPPKQFTFDGAYHVDHVTEQIYNEIAYPLVEGVTEGYNGTIFAYGQTGSGKSFTMQGLPDPPSQRGIIPRAFEHVFESVQCAENTKFLVRASYLEIYNEDVRDLLGADTKQKLELKEHPEKGVYVKGLSMHTVHSVAQCEHIMETGWKNRSVGYTLMNKDSSRSHSIFTISIEMSAVDERGKDHLRAGKLNLVDLAGSERQSKTGATGERLKEATKINLSLSALGNVISALVDGRCKHVPYRDSKLTRLLQDSLGGNTKTLMVACLSPADNNYDETLSTLRYANRAKNIRNKPRINEDPKDALLREYQEEIKKLKAILTQQMSPSSLSALLSRQVPPDPVQVEEKLLPQPVIQHDVEAEKQLIREEYEERLARLKADYKAEQESRARLEEDITAMRNSYDVRLSTLEENLRKETEAVLQVGVLYKAEVMSRAEFASSAEYPPAF	2
